{"source": "patent US20140072613A1", "about": "“Compositions and Methods for Treating Cutaneous Scarring” (priority 2012, published 2014)", "test_in_all_cases": "cell-based or functional assay", "key": {"CaMKIIδ(h) (human)": {"molecular_target": "CaMKIIδ(h) (human) (UniProt Q13557)", "sequence (Q13557 whole entry, stated change not applied)": "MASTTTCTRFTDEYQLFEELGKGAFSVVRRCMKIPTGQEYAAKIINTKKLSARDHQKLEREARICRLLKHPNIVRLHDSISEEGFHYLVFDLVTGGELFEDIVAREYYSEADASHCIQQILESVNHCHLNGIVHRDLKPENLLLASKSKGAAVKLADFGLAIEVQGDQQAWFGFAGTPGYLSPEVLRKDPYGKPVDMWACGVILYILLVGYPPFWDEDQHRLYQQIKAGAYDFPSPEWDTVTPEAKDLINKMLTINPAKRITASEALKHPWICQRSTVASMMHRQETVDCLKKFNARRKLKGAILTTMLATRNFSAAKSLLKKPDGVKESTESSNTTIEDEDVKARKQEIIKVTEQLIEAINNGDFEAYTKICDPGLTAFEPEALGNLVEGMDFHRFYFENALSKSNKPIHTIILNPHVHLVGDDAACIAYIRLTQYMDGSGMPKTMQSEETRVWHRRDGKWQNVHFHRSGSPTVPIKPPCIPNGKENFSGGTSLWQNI"}, "Lyn(h) (human)": {"molecular_target": "Lyn(h) (human) (UniProt P07948)", "sequence (P07948 whole entry)": "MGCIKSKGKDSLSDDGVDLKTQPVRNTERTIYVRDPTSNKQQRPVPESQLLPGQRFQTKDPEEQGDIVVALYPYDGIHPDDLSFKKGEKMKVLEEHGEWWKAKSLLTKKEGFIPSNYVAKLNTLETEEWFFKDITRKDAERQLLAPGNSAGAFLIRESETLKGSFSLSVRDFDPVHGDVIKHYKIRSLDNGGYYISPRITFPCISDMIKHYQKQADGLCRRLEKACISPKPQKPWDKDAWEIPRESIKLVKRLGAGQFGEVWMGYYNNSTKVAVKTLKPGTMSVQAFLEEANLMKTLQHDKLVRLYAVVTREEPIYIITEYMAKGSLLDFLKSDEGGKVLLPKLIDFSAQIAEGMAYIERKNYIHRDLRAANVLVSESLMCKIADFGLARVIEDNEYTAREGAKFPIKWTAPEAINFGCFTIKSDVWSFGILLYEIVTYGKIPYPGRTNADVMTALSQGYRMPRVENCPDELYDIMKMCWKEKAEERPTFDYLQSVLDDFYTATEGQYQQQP"}, "EphA4(h) (human)": {"molecular_target": "EphA4(h) (human) (UniProt P54764)"}, "ZIPK(h) (human)": {"molecular_target": "ZIPK(h) (human) (UniProt O43293)", "sequence (O43293 whole entry)": "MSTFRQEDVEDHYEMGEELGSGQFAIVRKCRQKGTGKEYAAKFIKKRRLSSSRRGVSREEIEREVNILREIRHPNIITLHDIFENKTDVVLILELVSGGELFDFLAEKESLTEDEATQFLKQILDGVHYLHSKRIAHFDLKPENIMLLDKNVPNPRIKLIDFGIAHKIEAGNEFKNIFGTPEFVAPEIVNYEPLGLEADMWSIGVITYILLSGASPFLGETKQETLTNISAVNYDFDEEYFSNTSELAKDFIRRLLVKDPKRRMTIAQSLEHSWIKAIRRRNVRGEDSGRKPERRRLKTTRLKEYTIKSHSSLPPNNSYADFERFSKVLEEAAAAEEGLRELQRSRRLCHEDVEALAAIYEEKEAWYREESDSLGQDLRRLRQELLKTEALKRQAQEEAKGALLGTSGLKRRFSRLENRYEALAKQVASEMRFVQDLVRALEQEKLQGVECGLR"}, "Tec(h)activated (human)": {"molecular_target": "T1, Tec(h)activated (human) (UniProt P42680)", "T1 sequence (looked up)": "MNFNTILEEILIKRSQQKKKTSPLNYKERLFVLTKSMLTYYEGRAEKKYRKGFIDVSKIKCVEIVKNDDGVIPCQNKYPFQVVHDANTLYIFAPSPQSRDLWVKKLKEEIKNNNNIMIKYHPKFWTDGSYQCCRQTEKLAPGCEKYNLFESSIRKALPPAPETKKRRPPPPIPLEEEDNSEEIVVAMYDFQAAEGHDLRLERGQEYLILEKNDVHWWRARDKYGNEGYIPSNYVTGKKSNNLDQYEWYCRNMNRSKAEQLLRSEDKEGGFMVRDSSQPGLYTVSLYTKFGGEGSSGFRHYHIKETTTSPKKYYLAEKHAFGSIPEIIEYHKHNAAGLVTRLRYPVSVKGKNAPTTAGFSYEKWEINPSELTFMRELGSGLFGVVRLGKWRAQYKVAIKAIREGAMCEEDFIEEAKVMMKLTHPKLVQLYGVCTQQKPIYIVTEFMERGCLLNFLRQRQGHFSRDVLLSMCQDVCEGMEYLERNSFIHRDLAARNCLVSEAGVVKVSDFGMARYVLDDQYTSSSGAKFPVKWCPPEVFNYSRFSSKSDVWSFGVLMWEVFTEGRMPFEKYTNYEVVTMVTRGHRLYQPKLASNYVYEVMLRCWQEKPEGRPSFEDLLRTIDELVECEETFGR"}, "Lck(h) activated (human)": {"molecular_target": "Lck(h) activated (human) (UniProt P06239)"}, "[1]": {"molecular_target": "IGF-1R(h), activated (human) (UniProt P08069)"}, "PDGFRβ(h) (human)": {"molecular_target": "PDGFRβ(h) (human) (UniProt P09619)"}, "[2]": {"molecular_target": "CDK9/cyclin T1(h) (human) (UniProt P50750)", "sequence (P50750 whole entry, chain 1 of 2)": "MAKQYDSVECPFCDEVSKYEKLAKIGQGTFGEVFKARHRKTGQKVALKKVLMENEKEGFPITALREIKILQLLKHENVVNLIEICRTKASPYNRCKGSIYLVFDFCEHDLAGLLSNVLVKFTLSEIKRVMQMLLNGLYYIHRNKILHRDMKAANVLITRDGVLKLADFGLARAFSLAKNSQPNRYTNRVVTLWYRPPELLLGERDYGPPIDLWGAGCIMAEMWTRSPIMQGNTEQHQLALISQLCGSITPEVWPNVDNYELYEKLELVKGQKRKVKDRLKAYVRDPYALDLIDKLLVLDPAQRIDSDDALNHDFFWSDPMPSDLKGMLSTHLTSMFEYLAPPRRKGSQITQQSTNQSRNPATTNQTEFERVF", "sequence (O60563 whole entry, chain 2 of 2, further chain)": "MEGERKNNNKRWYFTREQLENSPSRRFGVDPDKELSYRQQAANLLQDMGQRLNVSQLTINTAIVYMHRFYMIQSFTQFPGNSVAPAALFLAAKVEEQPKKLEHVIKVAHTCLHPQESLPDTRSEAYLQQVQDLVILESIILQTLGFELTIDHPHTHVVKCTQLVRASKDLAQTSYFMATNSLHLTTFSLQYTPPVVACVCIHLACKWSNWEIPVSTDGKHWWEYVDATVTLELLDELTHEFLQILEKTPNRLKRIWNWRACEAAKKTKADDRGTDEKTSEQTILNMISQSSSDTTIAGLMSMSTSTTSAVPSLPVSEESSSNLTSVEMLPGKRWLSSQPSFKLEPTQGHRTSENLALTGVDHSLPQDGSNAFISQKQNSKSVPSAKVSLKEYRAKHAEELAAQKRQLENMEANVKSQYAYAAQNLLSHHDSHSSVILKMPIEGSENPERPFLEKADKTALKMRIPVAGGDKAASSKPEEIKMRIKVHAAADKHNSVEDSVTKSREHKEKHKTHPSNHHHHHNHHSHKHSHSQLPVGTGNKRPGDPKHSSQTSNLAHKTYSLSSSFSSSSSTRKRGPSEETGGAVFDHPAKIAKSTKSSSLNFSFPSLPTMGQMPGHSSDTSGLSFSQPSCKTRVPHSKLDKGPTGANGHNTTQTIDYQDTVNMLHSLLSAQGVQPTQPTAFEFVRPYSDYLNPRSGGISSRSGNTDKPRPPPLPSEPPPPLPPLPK"}, "CK1δ(h) (human)": {"molecular_target": "CK1δ(h) (human) (UniProt P48730)", "sequence (P48730 1-294, stated change not applied)": "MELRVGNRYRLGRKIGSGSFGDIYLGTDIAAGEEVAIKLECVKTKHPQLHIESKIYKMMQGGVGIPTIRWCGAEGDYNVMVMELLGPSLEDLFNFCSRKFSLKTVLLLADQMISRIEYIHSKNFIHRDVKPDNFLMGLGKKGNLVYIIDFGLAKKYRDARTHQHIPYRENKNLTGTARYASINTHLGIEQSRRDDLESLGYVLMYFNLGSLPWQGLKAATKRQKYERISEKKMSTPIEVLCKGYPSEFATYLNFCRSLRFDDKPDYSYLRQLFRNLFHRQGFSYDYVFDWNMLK"}, "SRPK2(h) (human)": {"molecular_target": "SRPK2(h) (human) (UniProt P78362)"}, "MSK1(h) (human)": {"molecular_target": "MSK1(h) (human) (UniProt O75582)", "sequence (O75582 whole entry)": "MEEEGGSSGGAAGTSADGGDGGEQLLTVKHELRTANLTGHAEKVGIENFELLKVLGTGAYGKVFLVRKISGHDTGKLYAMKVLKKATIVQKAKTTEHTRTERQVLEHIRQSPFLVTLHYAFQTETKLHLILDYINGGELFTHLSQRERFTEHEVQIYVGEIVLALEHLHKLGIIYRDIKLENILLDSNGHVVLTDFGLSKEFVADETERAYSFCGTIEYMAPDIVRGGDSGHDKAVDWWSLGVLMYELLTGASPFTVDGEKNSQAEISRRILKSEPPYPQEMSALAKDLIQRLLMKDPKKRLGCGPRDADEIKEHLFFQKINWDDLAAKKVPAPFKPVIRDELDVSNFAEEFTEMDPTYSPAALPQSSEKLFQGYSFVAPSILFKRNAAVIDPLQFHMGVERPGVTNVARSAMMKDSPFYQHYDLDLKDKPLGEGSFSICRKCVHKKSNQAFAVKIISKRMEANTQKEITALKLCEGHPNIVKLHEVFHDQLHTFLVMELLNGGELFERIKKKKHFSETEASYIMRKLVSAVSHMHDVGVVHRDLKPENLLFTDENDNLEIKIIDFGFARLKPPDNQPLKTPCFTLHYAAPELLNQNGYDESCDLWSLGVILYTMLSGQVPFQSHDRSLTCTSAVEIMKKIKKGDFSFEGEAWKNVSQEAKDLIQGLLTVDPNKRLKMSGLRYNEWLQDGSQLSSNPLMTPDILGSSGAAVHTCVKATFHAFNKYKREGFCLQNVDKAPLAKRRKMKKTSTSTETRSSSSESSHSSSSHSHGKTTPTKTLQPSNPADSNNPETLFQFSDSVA"}, "ULK3(h) (human)": {"molecular_target": "T2, ULK3(h) (human) (UniProt Q6PHR2)", "T2 sequence (looked up)": "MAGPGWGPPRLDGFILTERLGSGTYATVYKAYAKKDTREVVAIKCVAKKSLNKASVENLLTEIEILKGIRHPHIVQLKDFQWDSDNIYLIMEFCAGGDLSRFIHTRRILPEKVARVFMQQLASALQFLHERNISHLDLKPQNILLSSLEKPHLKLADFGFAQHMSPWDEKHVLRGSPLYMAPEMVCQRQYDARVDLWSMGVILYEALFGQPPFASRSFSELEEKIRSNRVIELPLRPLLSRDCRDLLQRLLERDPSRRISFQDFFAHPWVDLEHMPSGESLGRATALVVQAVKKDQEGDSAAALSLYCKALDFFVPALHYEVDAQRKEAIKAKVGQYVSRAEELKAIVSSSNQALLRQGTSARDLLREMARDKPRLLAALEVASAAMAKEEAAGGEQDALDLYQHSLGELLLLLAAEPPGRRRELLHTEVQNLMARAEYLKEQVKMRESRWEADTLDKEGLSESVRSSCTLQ"}, "Pim-1(h) (human)": {"molecular_target": "Pim-1(h) (human) (UniProt P11309)", "sequence (P11309 whole entry)": "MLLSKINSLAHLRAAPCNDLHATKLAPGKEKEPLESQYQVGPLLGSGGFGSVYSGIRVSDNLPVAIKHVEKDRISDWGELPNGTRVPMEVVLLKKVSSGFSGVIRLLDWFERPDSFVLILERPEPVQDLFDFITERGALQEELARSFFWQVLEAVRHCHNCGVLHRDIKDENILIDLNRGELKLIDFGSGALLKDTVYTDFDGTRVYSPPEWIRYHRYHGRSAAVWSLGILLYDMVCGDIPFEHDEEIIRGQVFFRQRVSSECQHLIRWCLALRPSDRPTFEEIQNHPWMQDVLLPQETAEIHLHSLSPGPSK"}, "Rsk4(h) (human)": {"molecular_target": "Rsk4(h) (human) (UniProt Q9UK32)"}, "CaMKIIγ(h) (human)": {"molecular_target": "CaMKIIγ(h) (human) (UniProt Q13555)"}, "CDK5/p35(h) (human)": {"molecular_target": "CDK5/p35(h) (human) (UniProt Q00535)"}, "SGK3(h) (human)": {"molecular_target": "T3, SGK3(h) (human) (UniProt Q96BR1)", "T3 sequence (looked up)": "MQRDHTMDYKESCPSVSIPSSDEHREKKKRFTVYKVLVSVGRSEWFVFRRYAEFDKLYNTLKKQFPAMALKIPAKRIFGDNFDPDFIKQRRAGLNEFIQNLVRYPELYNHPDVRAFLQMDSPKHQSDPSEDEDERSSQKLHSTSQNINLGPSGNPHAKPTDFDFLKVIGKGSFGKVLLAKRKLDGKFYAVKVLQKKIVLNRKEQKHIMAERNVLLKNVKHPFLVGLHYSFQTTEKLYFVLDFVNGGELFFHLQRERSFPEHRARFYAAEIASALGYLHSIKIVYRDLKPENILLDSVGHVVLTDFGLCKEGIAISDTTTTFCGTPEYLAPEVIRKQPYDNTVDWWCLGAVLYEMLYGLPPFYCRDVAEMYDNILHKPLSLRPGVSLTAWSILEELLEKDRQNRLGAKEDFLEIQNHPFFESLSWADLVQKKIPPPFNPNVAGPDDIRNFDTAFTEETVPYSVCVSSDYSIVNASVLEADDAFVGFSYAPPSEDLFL"}, "STK33(h) (human)": {"molecular_target": "STK33(h) (human) (UniProt Q9BYT3)"}, "Rse(h) (human)": {"molecular_target": "T4, Rse(h) (human) (UniProt Q06418)", "T4 sequence (looked up)": "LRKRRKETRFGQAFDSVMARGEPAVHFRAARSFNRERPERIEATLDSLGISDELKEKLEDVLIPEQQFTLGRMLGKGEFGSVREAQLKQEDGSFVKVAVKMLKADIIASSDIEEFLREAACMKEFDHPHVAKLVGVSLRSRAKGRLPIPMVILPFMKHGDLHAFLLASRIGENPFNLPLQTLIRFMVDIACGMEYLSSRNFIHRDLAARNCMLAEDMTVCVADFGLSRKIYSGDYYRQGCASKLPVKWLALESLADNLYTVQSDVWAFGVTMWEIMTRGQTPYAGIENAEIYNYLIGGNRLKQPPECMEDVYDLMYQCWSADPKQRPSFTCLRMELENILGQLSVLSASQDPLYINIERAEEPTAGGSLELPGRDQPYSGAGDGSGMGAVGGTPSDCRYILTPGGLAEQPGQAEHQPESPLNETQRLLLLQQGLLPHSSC"}, "HIPK3(h) (human)": {"molecular_target": "HIPK3(h) (human) (UniProt Q9H422)", "sequence (Q9H422 163-562 limits assumed)": "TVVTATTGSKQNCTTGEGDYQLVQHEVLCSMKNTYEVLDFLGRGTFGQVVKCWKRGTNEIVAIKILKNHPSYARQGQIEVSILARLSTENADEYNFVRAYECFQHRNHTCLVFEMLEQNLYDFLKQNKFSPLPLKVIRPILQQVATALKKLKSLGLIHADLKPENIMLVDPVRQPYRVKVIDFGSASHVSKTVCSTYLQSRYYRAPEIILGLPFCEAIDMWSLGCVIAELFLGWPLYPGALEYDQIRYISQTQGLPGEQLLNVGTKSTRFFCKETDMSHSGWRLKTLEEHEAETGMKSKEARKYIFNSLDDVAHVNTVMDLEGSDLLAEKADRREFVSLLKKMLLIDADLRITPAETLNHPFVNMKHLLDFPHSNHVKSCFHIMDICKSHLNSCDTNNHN"}, "Fyn(h) (human)": {"molecular_target": "Fyn(h) (human) (UniProt P06241)", "sequence (P06241 whole entry)": "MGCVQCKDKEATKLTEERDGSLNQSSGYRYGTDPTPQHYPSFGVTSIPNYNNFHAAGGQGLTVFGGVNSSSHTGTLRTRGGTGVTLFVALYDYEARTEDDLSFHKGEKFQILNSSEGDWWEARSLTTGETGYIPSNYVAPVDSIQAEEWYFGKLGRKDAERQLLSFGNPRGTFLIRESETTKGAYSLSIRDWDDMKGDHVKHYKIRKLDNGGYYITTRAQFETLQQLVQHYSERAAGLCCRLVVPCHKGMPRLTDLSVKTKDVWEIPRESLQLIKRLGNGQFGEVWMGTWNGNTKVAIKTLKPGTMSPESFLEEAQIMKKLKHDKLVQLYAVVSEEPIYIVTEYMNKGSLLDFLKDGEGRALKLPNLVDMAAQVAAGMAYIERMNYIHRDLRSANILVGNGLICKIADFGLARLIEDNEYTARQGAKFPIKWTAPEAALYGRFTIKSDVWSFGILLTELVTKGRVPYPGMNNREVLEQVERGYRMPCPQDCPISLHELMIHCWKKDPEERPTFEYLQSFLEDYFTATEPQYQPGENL"}}}
{"substance": "MMI-0500 (peptide)", "values": [{"measurement": "% activity, 100 µM", "setting": "CaMKIIδ(h) (human)", "value": 1, "unit": "%"}, {"measurement": "% activity, 100 µM", "setting": "Lyn(h) (human)", "value": 31, "unit": "%"}, {"measurement": "% activity, 100 µM", "setting": "EphA4(h) (human)", "value": 48, "unit": "%"}, {"measurement": "% activity, 100 µM", "setting": "ZIPK(h) (human)", "value": 1, "unit": "%"}, {"measurement": "% activity, 100 µM", "setting": "Tec(h)activated (human)", "value": 33, "unit": "%"}, {"measurement": "% activity, 100 µM", "setting": "Lck(h) activated (human)", "value": 76, "unit": "%"}, {"measurement": "% activity, 100 µM", "setting": "[1]", "value": 45, "unit": "%"}, {"measurement": "% activity, 100 µM", "setting": "PDGFRβ(h) (human)", "value": 40, "unit": "%"}, {"measurement": "% activity, 100 µM", "setting": "[2]", "value": 6, "unit": "%"}, {"measurement": "% activity, 100 µM", "setting": "CK1δ(h) (human)", "value": 78, "unit": "%"}, {"measurement": "% activity, 100 µM", "setting": "SRPK2(h) (human)", "value": 80, "unit": "%"}, {"measurement": "% activity, 100 µM", "setting": "MSK1(h) (human)", "value": 8, "unit": "%"}, {"measurement": "% activity, 100 µM", "setting": "ULK3(h) (human)", "value": 177, "unit": "%"}, {"measurement": "% activity, 100 µM", "setting": "Pim-1(h) (human)", "value": 0, "unit": "%"}, {"measurement": "% activity, 100 µM", "setting": "Rsk4(h) (human)", "value": 29, "unit": "%"}, {"measurement": "% activity, 100 µM", "setting": "CaMKIIγ(h) (human)", "value": 3, "unit": "%"}, {"measurement": "% activity, 100 µM", "setting": "CDK5/p35(h) (human)", "value": 59, "unit": "%"}, {"measurement": "% activity, 100 µM", "setting": "SGK3(h) (human)", "value": -3, "unit": "%"}, {"measurement": "% activity, 100 µM", "setting": "STK33(h) (human)", "value": 16, "unit": "%"}, {"measurement": "% activity, 100 µM", "setting": "Rse(h) (human)", "value": 63, "unit": "%"}, {"measurement": "% activity, 100 µM", "setting": "HIPK3(h) (human)", "value": 85, "unit": "%"}, {"measurement": "% activity, 100 µM", "setting": "Fyn(h) (human)", "value": 83, "unit": "%"}]}
